Measurements from PMC4409310, “Substrate Recognition and Modification by the Nosiheptide Resistance Methyltransferase” (PLoS ONE, 2015).

B1: HA-His-NHR-R135A (enzyme, Streptomyces actuosus, UniProt P52391 1-274, looked up)
chain: MTEPAIITNASDPAVQRIIDVTKHSRASIKTTLIEDTEPLMECIRAGVQFIEVYGSSGTPLDPALLDLCRQREIPVRLIDVSIVNQLFKAERKAKVFGIARVPRPARLADIAERGGDVVVLDGVKIVGNIGAIVATSLALGAAGIVLVDSDLATIADRRLLRASRGYVFSLPVVLADREEAVSFLRDNDIALMVLDTDGDLGVKDLGDRADRMALVFGSEKGGPSGLFQEASAGTVSIPMLSSTESLNVSVSVGIALHERSARNFAVRRAAAQA
notes: nosiheptide resistance methyltransferase (NHR), Streptomyces actuosus; Homodimer when alone; in the heterodimer with Flag-Trx-His-NHR one chain of each construct; also called HA-NHR-R135A; HA-R135A-NHR; source: site-directed mutagenesis of His-NHR, HA tag added by PCR; purified (Ni-NTA, gel filtration); not shown: His6, N-terminal, kept

Key:
[1] = target: the molecule itself; assay: native gel or EMSA; differently tagged (short and long) NHR proteins mixed at 4°C overnight, then incubated with 58 nt or 29 nt RNA (6-10 μM RNA, 2-10 μM protein) for 1 hour at 4°C in 25 mM Hepes-KOH, 25 mM NH4Cl, 5 mM MgCl2, 5 mM DTT, pH 8.0; 6% polyacrylamide native gel, SYBR Gold; dimers seen as RNA-protein complexes
HA-His-NHR-R135A = target: B1; assay: as above; conditions: both partners purified

Binder | stoichiometry N [1] | binding result (HA-His-NHR-R135A)
N-terminal hexahistidine tagged nosiheptide resistance methyltransferase (His-NHR) (enzyme, Streptomyces actuosus, UniProt P52391 1-274, looked up, nosiheptide resistance methyltransferase (NHR), Streptomyces actuosus; wild type; Homodimer when alone; in the heterodimer with Trx-NHR one chain of each construct; also called NHR(S); short, S; source: over expressed from pET-28a-NHR, purified (Ni-NTA, gel filtration); not shown: His6, N-terminal, kept) MTEPAIITNASDPAVQRIIDVTKHSRASIKTTLIEDTEPLMECIRAGVQFIEVYGSSGTPLDPALLDLCRQREIPVRLIDVSIVNQLFKAERKAKVFGIARVPRPARLADIAERGGDVVVLDGVKIVGNIGAIVRTSLALGAAGIVLVDSDLATIADRRLLRASRGYVFSLPVVLADREEAVSFLRDNDIALMVLDTDGDLGVKDLGDRADRMALVFGSEKGGPSGLFQEASAGTVSIPMLSSTESLNVSVSVGIALHERSARNFAVRRAAAQA | 2 | –
thioredoxin tagged nosiheptide resistance methyltransferase (Trx-NHR) (enzyme, Streptomyces actuosus, UniProt P52391 1-274, looked up, nosiheptide resistance methyltransferase (NHR), Streptomyces actuosus; wild type; Homodimer when alone; in the heterodimer with His-NHR one chain of each construct; Named Trx-His-NHR in the methods; also called Trx-His-NHR; NHR(L); source: over expressed from pET-32M-NHR, purified (Ni-NTA, gel filtration); not shown: thioredoxin, N-terminal, kept) MTEPAIITNASDPAVQRIIDVTKHSRASIKTTLIEDTEPLMECIRAGVQFIEVYGSSGTPLDPALLDLCRQREIPVRLIDVSIVNQLFKAERKAKVFGIARVPRPARLADIAERGGDVVVLDGVKIVGNIGAIVRTSLALGAAGIVLVDSDLATIADRRLLRASRGYVFSLPVVLADREEAVSFLRDNDIALMVLDTDGDLGVKDLGDRADRMALVFGSEKGGPSGLFQEASAGTVSIPMLSSTESLNVSVSVGIALHERSARNFAVRRAAAQA | 2 | –
B1 | 2 | –
Flag-Trx-His-NHR (enzyme, Streptomyces actuosus, UniProt P52391 1-274, looked up, nosiheptide resistance methyltransferase (NHR), Streptomyces actuosus; wild type; Homodimer when alone; in the heterodimer with HA-His-NHR-R135A one chain of each construct; also called Flag-NHR; Flag-Trx-NHR; source: Flag tag added to Trx-His-NHR by PCR; purified (Ni-NTA, gel filtration); not shown: thioredoxin, N-terminal, kept) MTEPAIITNASDPAVQRIIDVTKHSRASIKTTLIEDTEPLMECIRAGVQFIEVYGSSGTPLDPALLDLCRQREIPVRLIDVSIVNQLFKAERKAKVFGIARVPRPARLADIAERGGDVVVLDGVKIVGNIGAIVRTSLALGAAGIVLVDSDLATIADRRLLRASRGYVFSLPVVLADREEAVSFLRDNDIALMVLDTDGDLGVKDLGDRADRMALVFGSEKGGPSGLFQEASAGTVSIPMLSSTESLNVSVSVGIALHERSARNFAVRRAAAQA | 2 | binds
